According to patent US20140363428A1 (Chugai, published 2014):

Columns and labels:
[1] = biological target: T1, soluble human FcRn (heterodimer of FcRn alpha chain and beta2-microglobulin) (human, UniProt P55899 24-297; P61769 21-119); assay: statement in Example 3
T1 construct: Signal regions are part of the expressed constructs; also called hFcRn

[2] = biological target: T1, soluble human FcRn (heterodimer of FcRn …); assay: SPR, hFcRn at pH 7.0

Row | binding result [1] | binding result [2] | Binder
1 | binds |  | Fv-4-F946 (antibody, human IgG1, kappa, VH3-F946 and VL3-CK) heavy: QVQLQESGPGLVKPSETLSLTCAVSGHSISHDHAWSWVRQPPGEGLEWIGFISYSGITNYNPSLQGRVTISRDNSKNTLYLQMNSLRAEDTAVYYCARSLARTTAMDYWGEGTLVTVSSASTKGPSVFPLAPSSKSTSGGTAALGCLVKDYFPEPVTVSWNSGALTSGVHTFPAVLQSSGLYSLSSVVTVPSSSLGTQTYICNVNHKPSNTKVDKKVEPKSCDKTHTCPPCPAPELLGGPSVFLFPPKPKDVLYISRTPEVTCVVVDVSHEDPEVKFNWYVDGVEVHNAKTKPREEQYNSTYRVVSVLQVLHADWLNGKEYKCKVSNKALPAPIEKTISKAKGQPREPQVYTLPPSRDELTKNQVSLTCLVKGFYPSDIAVEWESNGQPENNYKTTPPVLDSDGSFFLYSKLTVDKSRWQQGNVFSCSVMHEALHYHVTQKSLSLSP light: DIQMTQSPSSLSASVGDSVTITCQASTDISSHLNWYQQKPGKAPELLIYYGSHLLSGVPSRFSGSGSGTDFTFTISSLEAEDAATYYCGQGNRLPYTFGQGTKVEIERTVAAPSVFIFPPSDEQLKSGTASVVCLLNNFYPREAKVQWKVDNALQSGNSQESVTEQDSKDSTYSLSSTLTLSKADYEKHKVYACEVTHQGLSSPVTKSFNRGEC
2 |  | binds | Fv-4-F1080 (antibody, human IgG1, kappa, name in EU numbering, additional N-glycosylation found by SDS-PAGE (S424N)) heavy: QVQLQESGPGLVKPSETLSLTCAVSGHSISHDHAWSWVRQPPGEGLEWIGFISYSGITNYNPSLQGRVTISRDNSKNTLYLQMNSLRAEDTAVYYCARSLARTTAMDYWGEGTLVTVSSASTKGPSVFPLAPSSKSTSGGTAALGCLVKDYFPEPVTVSWNSGALTSGVHTFPAVLQSSGLYSLSSVVTVPSSSLGTQTYICNVNHKPSNTKVDKKVEPKSCDKTHTCPPCPAPELLGGPSVFLFPPKPKDTLYISRTPEVTCVVVDVSHEDPEVKFNWYVDGVEVHNAKTKPREEQYNSTYRVVSVLTVLHQDWLNGKEYKCKVSNKALPAPIEKTISKAKGQPREPQVYTLPPSRDELTKNQVSLTCLVKGFYPSDIAVEWESNGQPENNYKTTPPVLDSDGSFFLYSKLTVDKSRWQQGNVFNCSVMHEALHYHYTQKSLSLSP light: DIQMTQSPSSLSASVGDSVTITCQASTDISSHLNWYQQKPGKAPELLIYYGSHLLSGVPSRFSGSGSGTDFTFTISSLEAEDAATYYCGQGNRLPYTFGQGTKVEIERTVAAPSVFIFPPSDEQLKSGTASVVCLLNNFYPREAKVQWKVDNALQSGNSQESVTEQDSKDSTYSLSSTLTLSKADYEKHKVYACEVTHQGLSSPVTKSFNRGEC
